{"source": "paper PMC12065890", "key": {"[1]": {"target": "full-length Amh (SPR protein) (zebrafish)", "assay": "SPR"}, "[2]": {"target": "Amh C-terminal domain (SPR protein) (zebrafish)", "assay": "SPR"}}}
{"substance": "Bmpr2a domain protein (protein kinase domain of Bmpr2a, SPR protein) (domain or fragment)", "values": [{"measurement": "Kd", "setting": "[1]", "result": 116, "unit": "nM"}, {"measurement": "Kd", "setting": "[2]", "result": 1390, "unit": "nM"}]}
